From US20200247894A1 (Regeneron, published 2020)
Values belong to the binder of their own block, whether it stands above or below them.

Assays:
[1] = target: T1, D1 domain of human IL-2Rγ extracellular domain expressed with a C-terminal myc-myc-hexahistidine tag (human); assay: SPR, mAb captured on anti-hFc, 25 C
T1 construct: also called human IL2Rγ domain 1
T1 chain: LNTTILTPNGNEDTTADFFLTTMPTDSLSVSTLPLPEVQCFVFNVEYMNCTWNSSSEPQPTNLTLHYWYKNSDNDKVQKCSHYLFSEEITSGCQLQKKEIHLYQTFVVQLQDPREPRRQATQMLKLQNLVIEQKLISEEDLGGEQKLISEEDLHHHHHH
Method: (§1) Equilibrium dissociation constants (KD values) for IL-2Rγ binding to purified anti-IL2Rγ monoclonal antibodies were determined using a Biacore 4000 instrument equipped with a real-time surface plasmon resonance biosensor. All binding studies were performed in 10 mM HEPES, 150 mM NaCl, 3 mM EDTA, and 0.05% v/v Surfactant Tween-20, pH 7.4 (HBS-ET) running buffer at 25° C. and 37° C. The Biacore sensor surface was first derivatized by amine coupling with a monoclonal mouse anti-human Fc antibody (GE, # BR-1008-39) to capture anti-IL2Rγ monoclonal antibodies.
(§2) The dissociation of monoclonal antibody bound IL2Rγ reagents were monitored for 8-10 minutes in HBS-ET running buffer. Kinetic association (kₐ) and dissociation (kd) rate constants were determined by fitting the real-time sensorgrams to a 1:1 binding model using Scrubber 2.0c curve fitting software. Binding dissociation equilibrium constants (KD) and dissociative half-lives (t_{1/2}) were calculated from the kinetic rate constants as: […]

[2] = target: T1, D1 domain of human IL-2Rγ extracellular …; assay: SPR, mAb captured on anti-hFc, 37 C
Method: as §1, §2

[3] = target: T2, human IL2Rγ (endogenously expressed on cells) (human, UniProt P31785 23-369); assay: cell-based or functional assay
T2 sequence (looked up): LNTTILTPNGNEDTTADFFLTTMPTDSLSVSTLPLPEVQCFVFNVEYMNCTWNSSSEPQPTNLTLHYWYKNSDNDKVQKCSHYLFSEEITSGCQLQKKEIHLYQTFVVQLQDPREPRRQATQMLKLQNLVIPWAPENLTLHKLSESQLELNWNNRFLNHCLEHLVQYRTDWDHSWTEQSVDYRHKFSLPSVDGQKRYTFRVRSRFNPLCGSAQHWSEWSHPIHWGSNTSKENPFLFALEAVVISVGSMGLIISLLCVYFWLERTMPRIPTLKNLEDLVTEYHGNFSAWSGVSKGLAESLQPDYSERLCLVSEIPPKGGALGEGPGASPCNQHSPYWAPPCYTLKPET

[4] = target: T3, mouse IL-2Rγ endogenously expressed on MC/9 cells (mouse, UniProt P34902 23-369); assay: flow cytometry, 10 ug/ml antibody, MC/9 cells (endogenous mouse IL-2Rg)
T3 construct: whole, on cells
T3 sequence (looked up): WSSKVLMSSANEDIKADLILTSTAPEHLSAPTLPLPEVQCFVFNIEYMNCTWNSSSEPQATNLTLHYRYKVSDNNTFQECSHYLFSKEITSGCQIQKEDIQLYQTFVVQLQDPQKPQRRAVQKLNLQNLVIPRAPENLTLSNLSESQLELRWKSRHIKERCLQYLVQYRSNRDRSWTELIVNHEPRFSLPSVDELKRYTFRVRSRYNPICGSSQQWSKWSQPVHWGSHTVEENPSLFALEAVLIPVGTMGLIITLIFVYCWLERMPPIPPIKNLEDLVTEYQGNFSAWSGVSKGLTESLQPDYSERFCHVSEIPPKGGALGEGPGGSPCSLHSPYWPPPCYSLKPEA
Method: (§3) For flow cytometry analyses, the cells were pre-incubated with mouse IgG at 100 μg/ml for 15 minutes at room temperature (RT) to block the binding of the antibodies to Fc receptors. […] Cells were washed, fixed using BD CytoFix™ (BD biosciences, #554655) and analyzed on an IQue® (Intellicyt®) Flow Cytometer or Accuri Flow cytometer (BD). […] The results were analyzed using ForeCyt® (IntelliCyt®) software to determine the geometric means of fluorescence (MFI) for viable cells. Binding ratios were calculated by normalizing the MFI of the test sample by the MFI of the unstained sample.

[5] = target: T4, human IL-2Rγ endogenously expressed on NK-92 and Jurkat cells (human, UniProt P31785 23-369); assay: flow cytometry, 10 ug/ml antibody, NK-92 cells (endogenous human IL-2Rg)
T4 construct: whole, on cells; on cells it stands with the other receptor subunits of the cell line; also called IL-2Rg; CD132
T4 sequence (looked up): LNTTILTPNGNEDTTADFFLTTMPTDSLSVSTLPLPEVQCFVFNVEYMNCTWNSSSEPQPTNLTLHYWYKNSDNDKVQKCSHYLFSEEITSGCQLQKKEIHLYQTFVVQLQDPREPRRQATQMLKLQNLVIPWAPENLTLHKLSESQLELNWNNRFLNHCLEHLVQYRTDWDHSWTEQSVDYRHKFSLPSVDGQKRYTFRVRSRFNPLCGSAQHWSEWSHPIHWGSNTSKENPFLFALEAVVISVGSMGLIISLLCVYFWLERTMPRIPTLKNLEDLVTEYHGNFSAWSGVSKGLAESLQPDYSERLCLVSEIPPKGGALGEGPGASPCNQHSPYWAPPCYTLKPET
Method: as §3

[6] = target: T5, Human IL2Rγ extracellular domain expressed with a C-terminal myc-myc-hexahistidine tag (human); assay: SPR Biacore 4000, mAb captured by anti-hFc, HBS-ET, 37C
T5 construct: also called hIL-2Rg-MMH; hIL-2RG-MMH
T5 chain: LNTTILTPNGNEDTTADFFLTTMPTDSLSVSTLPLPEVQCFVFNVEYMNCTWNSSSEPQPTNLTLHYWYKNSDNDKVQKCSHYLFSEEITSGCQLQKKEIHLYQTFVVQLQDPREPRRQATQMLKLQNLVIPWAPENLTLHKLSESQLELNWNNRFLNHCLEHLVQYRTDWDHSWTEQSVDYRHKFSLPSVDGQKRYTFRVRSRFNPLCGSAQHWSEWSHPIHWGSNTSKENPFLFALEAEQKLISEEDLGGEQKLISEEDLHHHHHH
In short: (§4)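 HBS-ET running buffer (10 mM HEPES, 150 mM NaCl, 3 mM EDTA, 0.05% Tween-20, pH 7.4). mAb capture via anti-human Fc. Dissociation monitored 8-10 min. 1:1 kinetic fit; KD, t1/2 derived from ka/kd.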

[7] = target: T6, Macaca fascicularis IL2Rγ extracellular domain expressed with a C-terminal myc-myc-hexahistidine tag (Macaca fascicularis); assay: SPR Biacore 4000, mAb captured by anti-hFc, 37C, dissociation in PBS-T pH 6.0
T6 construct: also called mfIL-2Rg-MMH; mfIL-2RG-MMH
T6 chain: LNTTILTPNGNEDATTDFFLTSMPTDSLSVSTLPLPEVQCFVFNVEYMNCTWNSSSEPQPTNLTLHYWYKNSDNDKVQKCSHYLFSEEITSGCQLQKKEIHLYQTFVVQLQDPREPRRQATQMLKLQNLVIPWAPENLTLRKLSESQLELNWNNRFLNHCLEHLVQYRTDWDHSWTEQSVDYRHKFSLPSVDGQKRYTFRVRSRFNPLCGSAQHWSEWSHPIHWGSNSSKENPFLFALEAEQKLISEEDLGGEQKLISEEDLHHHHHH
In short: (§5)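 Anti-IL2Rγ mAbs carrying human IgG4 Fc were captured on a CM5 surface amine-coupled with mouse anti-human Fc antibody. IL2Rγ-MMH was bound, and dissociation was followed for 6 minutes in PBS-T running buffer. kd came from fitting the real-time sensorgrams to a 1:1 binding model.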

[8] = target: T5, Human IL2Rγ extracellular domain …; assay: SPR Biacore 4000, mAb captured by anti-hFc, HBS-ET, 25C
In short: as §4

[9] = target: T6, Macaca fascicularis IL2Rγ extracellular …; assay: as above
In short: as §4

[10] = target: T6, Macaca fascicularis IL2Rγ extracellular …; assay: SPR Biacore 4000, mAb captured by anti-hFc, 37C, dissociation in PBS-T pH 7.4
In short: as §5

B1: H4H12857P (antibody, human IgG4 S228P, kappa, V domains shown)
VH: EVQLVESGGGVVRPGGSLRLSCAASGFTFDDFDMSWVRQGPGKGLEWVSGINWHGSSTGYADSVKGRFTISRDNAKNSLYLQMSSLRAEDTALYHCVRGGTIVGATTPLDYWGQGTLVTVSS
VL: DIQMTQSPSSLSASVGDRVTMTCRASRTISSYLSWYQQKSGKVPNLLIFGASSLQSGVPSRFSASGSGTDFTLIISSLQPEDFATYYCQQSYSSPLTFGGGTKVEIKR
notes: human IgG4; also called REGN9432
- 100 nM Ag Bound [1]: 0 RU
- 100 nM Ag Bound [2]: 1 RU
- binding result [2]: no binding (tested: 100 nM)
- IC50; IL-2 30 pM; NK92/hIL7R/STAT3-luc [3]: > 1e-07 M
- IC50; IL-4 250 pM; Ramos.2G6.4C10/STAT3-luc [3]: 3.8e-08 M
- IC50; IL-7 50 pM; NK92/hIL7R/STAT3-luc [3]: 1.6e-08 M
- IC50; IL-9 20 pM; NK92/hIL7R/STAT3-luc [3]: > 1e-07 M
- IC50; IL-15 60 pM; NK92/hIL7R/STAT3-luc [3]: > 1e-07 M
- Max Inhibition (%); IL-2 30 pM; NK92/hIL7R/STAT3-luc [3]: 44%
- Max Inhibition (%); IL-4 250 pM; Ramos.2G6.4C10/STAT3-luc [3]: 96%
- Max Inhibition (%); IL-7 50 pM; NK92/hIL7R/STAT3-luc [3]: 94%
- Max Inhibition (%); IL-9 20 pM; NK92/hIL7R/STAT3-luc [3]: 83%
- Max Inhibition (%); IL-15 60 pM; NK92/hIL7R/STAT3-luc [3]: 78%

B2: H4H12857P (antibody, human IgG4 S228P, kappa, V domains shown)
VH: EVQLVESGGGVVRPGGSLRLSCAASGFTFDDFDMSWVRQGPGKGLEWVSGINWHGSSTGYADSVKGRFTISRDNAKNSLYLQMSSLRAEDTALYHCVRGGTIVGATTPLDYWGQGTLVTVSS
VL: DIQMTQSPSSLSASVGDRVTMTCRASRTISSYLSWYQQKSGKVPNLLIFGASSLQSGVPSRFSASGSGTDFTLIISSLQPEDFATYYCQQSYSSPLTFGGGTKVEIKR
notes: fully human anti-IL2Rg antibody, human IgG4; also called REGN9432
- Binding Ratio (Sample over unstained MFIs) [4]: 1
- Raw MFI [4]: 198 MFI

B5: H4H13538P (antibody, human IgG4 S228P, kappa, V domains shown)
VH: EVQLVESGGGLVQPGGSLGLSCAASGFTFSNYAMSWVRQAPGKGLEWVSAVSGGGGGTYYADSVKGRFTISRDNSKNTVLLQMNSLRAEDTAVYYCARGRTGGLDYWGPGTLVTVSS
VL: DVVMTQSPLSLPVIFGQPASISCRSSQSLVDSDGNTYLNWLQQRPGQSPRRLIYEVSNRDSGVPDRFSGSGSGTDFTLTISRVEAEDVGIYYCMQGTRWPPTFGGGTKVEIKR
notes: fully human anti-IL2Rg antibody, human IgG4
- Binding Ratio (Sample over unstained MFIs) [5]: 1
- Raw MFI [5]: 235 MFI

B7: H4H12908P (antibody, human IgG4 S228P, kappa, V domains shown)
VH: EVQLVESGGRLVQPGGSLRLSCEASGFTFSNYGMTWVRQAPGKGLEWVSVISGSDNRKYYAESVKGRFTISRDNSKNTLYLQMNSLRAEDTAVYYCAKLGYSRSSKDFYYGMDVWGQGTTVTVSS
VL: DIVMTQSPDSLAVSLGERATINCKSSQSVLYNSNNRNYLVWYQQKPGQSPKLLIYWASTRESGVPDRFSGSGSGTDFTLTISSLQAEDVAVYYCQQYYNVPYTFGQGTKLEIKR
notes: anti-IL2Rγ monoclonal antibody expressed with human IgG4 Fc
- 100 nM Ag Bound [6]: 16 RU
- Kd [6]: 29.2 nM
- koff [6]: 0.00141 s⁻¹
- kon [6]: 48300 M⁻¹ s⁻¹
- t1/2 [6]: 8 min
- 100 nM Ag Bound (RU) [7]: 52 RU
- koff [7]: 0.00131 s⁻¹
- t1/2 [7]: 9 min
- 100 nM Ag Bound [8]: 19 RU
- Kd [8]: 8.61 nM
- koff [8]: 0.000285 s⁻¹
- kon [8]: 33100 M⁻¹ s⁻¹
- t1/2 [8]: 41 min
- 100 nM Ag Bound [9]: 14 RU
- Kd [9]: 7.37 nM
- koff [9]: 0.000237 s⁻¹
- kon [9]: 32200 M⁻¹ s⁻¹
- t1/2 [9]: 49 min
- 100 nM Ag Bound (RU) [10]: 55 RU
- koff [10]: 0.000514 s⁻¹
- t1/2 [10]: 22 min

Other lines, results leading:

- Binding Ratio (Sample over unstained MFIs) [5]: 24
- Raw MFI [5]: 4650 MFI
B3: H4H13544P2 (antibody, human IgG4 S228P, kappa, V domains shown)
VH: QLQLQESGPGLVKPSETLSLTCTVSGGSISIKNYYWGWIRQPPGKGLEWIGSIYYSGTTYYNPSLKSRVTISVDTSKNQFSLKLSSVTAADTAVYHCARHGYSYGHGWFDPWGQGTLVTVSS
VL: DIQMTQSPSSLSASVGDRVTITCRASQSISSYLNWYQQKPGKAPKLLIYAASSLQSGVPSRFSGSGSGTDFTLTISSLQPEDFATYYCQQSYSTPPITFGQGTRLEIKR
notes: as for B5

- Binding Ratio (Sample over unstained MFIs) [5]: 37
- Raw MFI [5]: 7050 MFI
B4: H4H13541P (antibody, human IgG4 S228P, kappa, V domains shown)
VH: EVQLVESGGGVVRPGGSLRLSCAASGFIFDDYDMSWVRQPPGRGLEWVSGIDWFGGTRGYADSMKGRFTISRDNAKNSLYLQMNSLRVEDTAFYYCARGGAIVGAVTPFDYWGQGTLVTVSS
VL: DIQMTQSPSSLSASVGNRVTLSCRASQSINTYLSWYQQRPGKAPKLLIYAASSLQSGVPSRFSGSGAGTDFTLTISSLQPEDFATYYCQQSYSAPLTFGGGTKVEIKR
notes: as for B5

- Binding Ratio (Sample over unstained MFIs) [5]: 3
- Raw MFI [5]: 592 MFI
B6: H4H13545P2 (antibody, human IgG4 S228P, kappa, V domains shown)
VH: QVQLQQSGPGLVKPSQTLSLTCDISGDSVSSNIATWNWIRQSPSRGLEWLGRTYYRSKWYKDYAVSVKSRITINPDTSKNQFSLQVNSVTPEDTAVYYCARMTGPRYYFEYWGQGTLVTVSS
VL: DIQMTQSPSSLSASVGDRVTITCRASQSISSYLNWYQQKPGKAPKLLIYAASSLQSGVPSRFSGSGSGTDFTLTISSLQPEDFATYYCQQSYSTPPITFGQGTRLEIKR
notes: as for B5
